Experimental data from the DeepSol protein solubility set.

Assay: soluble on expression in E. coli; label from the status in PepcDB or PDB records

Row | Sequence | soluble on expression in E. coli
1 | MDDQIKQIAERLRGLRDVLELTAEDIARDCEISAEEYRLAETGDYDISVSMLQKIARKYGIALDALMFGEEPKMSSYFLTRAGKGTSIERTKAYKYQSLAAGFMNRNADPFIVTVEPKPDIEPIHYNSHSGQEFNLVLEGRMMISIDGKDLILNEGDSLYFNSKLPHGMKALDGKTVRFLAVIM | not soluble
2 | MDEEPERTKRWEGGYERTWEILKEDESGSLKATIEDILFKAKRKRVFEHHGQVRLGMMRHLYVVVDGSRTMEDQDLKPNRLTCTLKLLEYFVEEYFDQNPISQIGIIVTKSKRAEKLTELSGNPRKHITSLKKAVDMTCHGEPSLYNSLSIAMQTLKHMPGHTSREVLIIFSSLTTCDPSNIYDLIKTLKAAKIRVSVIGLSAEVRVCTVLARETGGTYHVILDESHYKELLTHHVSPPPASSSSECSLIRMGFPQHTIASLSDQDAKPSFSMAHLDGNTEPGLTLGGYFCPQCRAKYCELPVECKICGLTLVSAPHLARSYHHLFPLDAFQEIPLEEYNGERFCYGCQGELKDQHVYVCAVCQNVFCVDCDVFVHDSLHCCPGCIHKIPAPSGV | soluble
3 | MDEFVKGLMKNGYLITPSAYYLLVGHFNEGKFSLIELIKFAKSRETFIIDDEIANEFLKSIGAEVELPQEIKEGYISTGEGSQKVPDHEELEKITNESSVESSISTGETPKTEELQPTLDILEEEIGDIEGGESSISTGDEVPEVENNNGGTVVVFDKYGYPFTYVPEEIEEELEEYPKYEDVTIEINPNLEVVPIEKDYEIKFDVRRVKLKPPKVKSGSGKEGEIIVEAYASLFRSRLRKLRRILRENPEVSNVIDIKKLKYVKGDEEVTIIGLVNSKKETSKGLIFEVEDQTDRVKVFLPKDSEDYREALKVLPDAVVAFKGVYSKRGIFFANRFYLPDVPLYRKQKPPLEEKVYAVLTSDIHVGSKEFCEKAFIKFLEWLNGYVESKEEEEIVSRIRYLIIAGDVVDGIGIYPGQYSDLIIPDIFDQYEALANLLSNVPKHITIFIGPGNHDAARPAIPQPEFYEEYAKPLYKLKNTVIISNPAVIRLHGRDFLIAHGRGIEDVVSFVPGLTHHKPGLPMVELLKMRHLAPTFGGKVPIAPDPEDLLVIEEVPDLVQMGHVHVYDTAVYRGVQLVNSATWQAQTEFQKMVNIVPTPGLVPIVDVESARVIKVLDFSRWC | soluble
4 | MDELSDIGDWSLIQSFLAVAETGSLSAAARQLDRSQPTLGRHVQALEQALGLSLFDRHARGLKLSADGARILPLAQQAHRAMTAISVTAAGQSQSLAGTVRITASVFASHHILPPILADIRAAEPAIELELVPSDTTENLLFRAADIAVRMYRPRQVDIVARHIGDVPLCACAATSYLERKGRPTRAEDLLDFDLVGYDADPIIVKTMQALGWPVTRHSFAMRCDNQSAYWQLIRAGCGIGFGQRSIVAADPLVEVLPFELPVPPLEMWLAAPQAMRLTPRIRRVWDLLAAGLLAAPL | not soluble
5 | MDEYNKNPEENDKPEYDMKMEALLKVLNREIPIKAHAHRADDILTAIRIAKEFGLRLTIEHCTEGHLIKDILAEEGVSAIVGSSLTDRSKVELRNLSLKTPGILAKAGVKVAIMTDHPCTPIQYLILCAAMAVREGMDEMEALRAVTINAAELTGIADRVGSIEVGKDADIAIYDGHPFDIRSKVSTTIINGKVVYERKKHERD | not soluble
6 | MDFMISHFCDEQNHQPLYKTRRQSISDSKNGPTLLSSSLPTNDECSDSDTENRLPPETELGNIEYKAKLVNPTTSRIQHLITQMKWRLREGQGEAIYEIGVEDGGIMSGLTDEELNDSLRTLRTMAQALGASMVILTEKDVTVKGSNSRRTVVEVLVRKVPESQQFIEVRLAVVGGCDVGKSTLCGVLTQGCLDDGNGKARIGIFRFPHEVRTGKTSSVCNDVIGFDNRGKLVNYAQNSLEEMVEKSSKLVTLIDLAGDAKYQKTTIHGLTGYTPHFACLVVAADRGITWATREHLGLIAALNIPMFVLITKMDLVDRQGLKKIIKDVSNLVAKAGMTAREKRVKTKRDAVKAAQELCVGSIVPVLAVSSVSGEGFRCLRTLLNCLSTAGTAESRIQLVGLPAFFTIEELYNVPHVGQVVGGMLSEGQLHEGADVLVGPMKDGTFEKITVGSIRRSRQAVGCVNPGEAASISLNLPDGVSLRRGMVLAEIDHQPPVCYEFTANLLLLCHSTKYICEGFQATVFIGSVCTTAIITHIDDADCIRPGKWAVVKMCFAYQPEVIREGSPIILRQGKTKGMGEVLKVFPCTQ | not soluble
7 | MDGCMPGISATTLLKQQNIPESFKFYFKRRFAPLVTDGPHLNELVRPRLKIAIVTETWPPEINGVAMSLLQLCKGLQEQGHKILLVRPQQKRECYEFSPHKECLVHAQRIPKYPELQFGWPQYLKVAKAFEDFTPDVVHVVTEGPLGLTALYAARAKQIPVSSGFHSPFQDFSRFFDLAFLLKPIQGYLRWFHNHTQITCVPSQDTEKALRAFGVTCPLSIVGRGVDPKFFSPDFRNEALRERWKAASDTVVMLYVGRLSPEKEIHILIQNYAAMRRVEPRNVKLVIVGSGPDRARLEALDETQEVIFMGSLSGKNLAEAYASADVFVFASQVETFGNVVLEAMASGLPVVAYDYACAHQYIQHGVTGWLSPLGQPATFIQAMRQLSGVKQLRQMGQRARQCVEHDGWQYPVQQMEQALYRVVKEPYMKLEHHHHHH | not soluble
8 | MDGIFAGIICNQANRCLTWTSQQLFSEKISGAEGTKLDDEFLDMERKIDVTNKVVAEILSKTTEYLQPNPAYRAKLGMLNTVSKIRGQVKTTGYPQTEGLLGDCMLKYGKELGEDSTFGNALIEVGESMKLMAEVKDSLDINVKQTFIDPLQLLQDKDLKEIGHHLKKLEGRRLDYDYKKKRVGKIPDEEVRQAVEKFEESKELAERSMFNFLENDVEQVSQLAVFIEAALDYHRQSTEILQELQSKLQMRISAASSVPRREYKPRPVKRSSSELNGVSTTSVVKTTGSNIPMDQPCCRGLYDFEPENQGELGFKEGDIITLTNQIDENWYEGMIHGESGFFPINYVEVIVPLPQ | soluble
9 | MDGSLSRPAVLDRAARQKRGTMARPQSKKKQTQVVRRPRRRGRLVPPGRLIAGRDFPEFLQQAVLLSGSLRQAARKLRVSYSTLRGWFGRRCDEPPEGGGDLLAEHAAAIRAELDAAAERLAMVRGQLDALERGE | not soluble
10 | MDHLKHLQQLQNIERIVLSGIVLANHKIEEVHSVLEPSDFYYPPNGLFFEIALKLHEEDCPIDENFIRQKMPKDKQIKEEDLVAIFAASPIDNIEAYVEEIKNASIKRKLFGLANTIREQALESAQKSSDILGAVEREVYALLNGSTIEGFRNIKEVLESAMDLITENQRKGSLEVTGIPTGFVQLDNYTSGFNKGSLVIIGARPSMGKTSLMMNMVLSALNDDRGVAVFSLEMSAEQLALRALSDLTSINMHDLESGRLDDDQWENLAKCFDHLSQKKLFFYDKSYVRIEQIRLQLRKLKSQHKELGIAFIDYLQLMSGSKATKERHEQIAEISRELKTLARELEIPIIALVQLNRSLENRDDKRPILSDIKDSGGIEQDADIVLFLYRGYIYQMRAEDNKIDKLKKEGKIEEAQELYLKVNEERRIHKQNGSIEEAEIIVAKNRNGATGTVYTRFNAPFTRYEDMPIDSHLEEGQETKVDYDIVTT | not soluble
11 | MDIETIVNEFETRAGTLLRYYTGLLERSKVQPCCFKLYNDPFDMVYVMMNSKLFSHVYIKDCKVRQSFELASPKHTEGLIRSIEGHYVGYELHDGKQLSISDMMASQLFEDEYFMYGLQTYAESNNSDVFKCLENGFDTDTLEGIQSSNTDVIANIEMLYQLATGINEPVPELVEGLKLVTEFVQDENATQEDYKALERKLNDLKASYYSLSKLAAALEHHHHHH | soluble
12 | MDIKVHFHDFSHVRIDCEESTFHELRDFFSFEADGYRFNPRFRYGNWDGRIRLLDYNRLLPFGLVGQIKKFCDNFGYKAWIDPQINEKEELSRKDFDEWLSKLEIYSGNKRIEPHWYQKDAVFEGLVNRRRILNLPTSAGRSLIQALLARYYLENYEGKILIIVPTTALTTQMADDFVDYRLFSHAMIKKIGGGASKDDKYKNDAPVVVGTWQTVVKQPKEWFSQFGMMMNDECHLATGKSISSIISGLNNCMFKFGLSGSLRDGKANIMQYVGMFGEIFKPVTTSKLMEDGQVTELKINSIFLRYPDEFTTKLKGKTYQEEIKIITGLSKRNKWIAKLAIKLAQKDENAFVMFKHVSHGKAIFDLIKNEYDKVYYVSGEVDTETRNIMKTLAENGKGIIIVASYGVFSTGISVKNLHHVVLAHGVKSKIIVLQTIGRVLRKHGSKTIATVWDLIDDAGVKPKSANTKKKYVHLNYLLKHGIDRIQRYADEKFNYVMKTVNLLEHHHHHH | soluble
